The record followed here is the supplement of paper PMC5998384.

Data set [1] deals with HeLa Kyoto. Briefly: solubility in G1/S (NP-40 vs SDS abundance) (log2 ratio); higher = more soluble. The following applies: cell cycle stage: G1/S.
For data set [2], the system named is HeLa Kyoto. The experiment in a line: melting temperature (median over replicates), in situ; higher = more thermally stable.
Data set [3] has as its system HeLa Kyoto. The experiment in a line: solubility change mitosis vs G1/S (difference of NP-40 vs SDS log2 ratios) (log2 ratio difference); higher = more soluble in mitosis.
Data set [4] has as its system HeLa Kyoto. Briefly: thermal stability score vs G1/S (z-score of summed log2 fold changes over temperatures); higher = more thermally stable than in G1/S.
[5] abbreviates: cell cycle stage: early G1 (4.5 h after nocodazole release).
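For melting temperature (median over replicates), in situ in this document: HeLa Kyoto cells synchronized by double thymidine or nocodazole block, proteins quantified by TMT10plex mass spectrometry, three independent biological replicates.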
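For solubility change mitosis vs G1/S (difference of NP-40 vs SDS log2 ratios) in this document: synchronized HeLa Kyoto cells (double thymidine block for G1/S, nocodazole release for mitosis), protein amounts in NP-40 versus SDS lysates quantified by mass spectrometry, three biological replicates.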
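For solubility in G1/S (NP-40 vs SDS abundance) in this document: HeLa Kyoto cells arrested at G1/S by double thymidine block, proteins quantified by TMT10plex mass spectrometry in mild NP-40 versus SDS extracts, three biological replicates.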
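For thermal stability score vs G1/S (z-score of summed log2 fold changes over temperatures) in this document: synchronized HeLa Kyoto cells, proteins quantified by TMT10plex mass spectrometry, three biological replicates, mitosis taken 0.5 h after nocodazole release, G1/S directly after double thymidine block.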

Turning to PLXNB2, in the data set with HeLa Kyoto [1], the “solubility in G1/S (log2)” value is -0.0357. In addition, the melting temperature in the data set with HeLa Kyoto [2] (cell cycle stage: G1/S) is 52.2 °C; with HeLa Kyoto [2] (cell cycle stage: mitosis), 51.1 °C. For the same substance, the “solubility change mitosis (log2)” value with HeLa Kyoto [3] is -0.0477. Further, the thermal stability score in the data set with HeLa Kyoto [4] (setting [5]) is -1.95; in the data set with HeLa Kyoto [4] (cell cycle stage: mitosis), -2.08.
For “MDDPDCDSTWEEDEEDAEDAEDEDCEDGEAAGARDADAGDEDEESEEPRAARPSSFQSRMTGSRNWRATRDMCRYRHNYPDLVERDCNGDTPNLSFYRNEIRFLPNGCFIEDILQNWTDNYDLLEDNHSYIQWLFPLREPGVNWHAKPLTLREVEVFKSSQEIQERLVRAYELMLGFYGIRLEDRGTGTVGRAQNYQKRFQNLNWRSHNNLRITRILKSLGELGLEHFQAPLVRFFLEETLVRRELPGVRQSALDYFMFAVRCRHQRRQLVHFAWEHFRPRCKFVWGPQDKLRRFKPSSLPHPLEGSRKVEEEGSPGDPDHEASTQGRTCGPEHSKGGGRVDEGPQPRSVEPQDAGPLERSQGDEAGGHGEDRPEPLSPKESKKRKLELSRREQPPTEPGPQSASEVEKIALNLEGCALSQGSLRTGTQEVGGQDPGEAVQPCRQPLGARVADKVRKRRKVDEGAGDSAAVASGGAQTLALAGSPAPSGHPKAGHSENGVEEDTEGRTGPKEGTPGSPSETPGPSPAGPAGDEPAESPSETPGPRPAGPAGDEPAESPSETPGPRPAGPAGDEPAESPSETPGPSPAGPTRDEPAESPSETPGPRPAGPAGDEPAESPSETPGPRPAGPAGDEPAESPSETPGPSPAGPTRDEPAKAGEAAELQDAEVESSAKSGKP [OGFR]”, the “solubility in G1/S (log2)” value with HeLa Kyoto [1] amounted to 0.423. In addition, the results for the melting temperature in the data set with HeLa Kyoto [2] (cell cycle stage: G1/S) and in the data set with HeLa Kyoto [2] (cell cycle stage: mitosis) were 48.1 °C and 49.6 °C, respectively. The “solubility change mitosis (log2)” value in the data set on HeLa Kyoto [3] was -0.0617. For the same substance, the thermal stability score with HeLa Kyoto [4] (setting [5]) was determined as 1.46; in the data set with HeLa Kyoto [4] (cell cycle stage: mitosis), 3.46.
In the case of FOCAD, the “solubility in G1/S (log2)” value with HeLa Kyoto [1] was -0.471. Moreover, the melting temperature was determined as 52.9 °C with HeLa Kyoto [2] (cell cycle stage: G1/S) and 52.4 °C in the data set on HeLa Kyoto [2] (cell cycle stage: mitosis). Further, the “solubility change mitosis (log2)” value with HeLa Kyoto [3] is -0.121. Further, the thermal stability score in the data set with HeLa Kyoto [4] (setting [5]) was -1.09; with HeLa Kyoto [4] (cell cycle stage: mitosis), -1.91.
Take “MHDAFEPVPILEKLPLQIDCLAAWEEWLLVGTKQGHLLLYRIRKDVVPADVASPESGSCNRFEVTLEKSNKNFSKKIQQIHVVSQFKILVSLLENNIYVHDLLTFQQITTVSKAKGASLFTCDLQHTETGEEVLRMCVAVKKKLQLYFWKDREFHELQGDFSVPDVPKSMAWCENSICVGFKRDYYLIRVDGKGSIKELFPTGKQLEPLVAPLADGKVAVGQDDLTVVLNEEGICTQKCALNWTDIPVAMEHQPPYIIAVLPRYVEIRTFEPRLLVQSIELQRPRFITSGGSNIIYVASNHFVWRLIPVPMATQIQQLLQDKQFELALQLAEMKDDSDSEKQQQIHHIKNLYAFNLFCQKRFDESMQVFAKLGTDPTHVMGLYPDLLPTDYRKQLQYPNPLPVLSGAELEKAHLALIDYLTQKRSQLVKKLNDSDHQSSTSPLMEGTPTIKSKKKLLQIIDTTLLKCYLHTNVALVAPLLRLENNHCHIEESEHVLKKAHKYSELIILYEKKGLHEKALQVLVDQSKKANSPLKGHERTVQYLQHLGTENLHLIFSYSVWVLRDFPEDGLKIFTEDLPEVESLPRDRVLGFLIENFKGLAIPYLEHIIHVWEETGSRFHNCLIQLYCEKVQGLMKEYLLSFPAGKTPVPAGEEEGELGEYRQKLLMFLEISSYYDPGRLICDFPFDGLLEERALLLGRMGKHEQALFIYVHILKDTRMAEEYCHKHYDRNKDGNKDVYLSLLRMYLSPPSIHCLGPIKLELLEPKANLQAALQVLELHHSKLDTTKALNLLPANTQINDIRIFLEKVLEENAQKKRFNQVLKNLLHAEFLRVQEERILHQQVKCIITEEKVCMVCKKKIGNSAFARYPNGVVVHYFCSKEVNPADT [VPS39]”: the “solubility in G1/S (log2)” value in the data set with HeLa Kyoto [1] was -0.174. In addition, the results for the melting temperature in the data set on HeLa Kyoto [2] (cell cycle stage: G1/S) and in the data set with HeLa Kyoto [2] (cell cycle stage: mitosis) were 50.8 °C and 50.1 °C, respectively. In addition, the “solubility change mitosis (log2)” value with HeLa Kyoto [3] is -0.261. Further, the thermal stability score is 0.627 with HeLa Kyoto [4] (setting [5]) and 0.376 in the data set with HeLa Kyoto [4] (cell cycle stage: mitosis).
Consider “MGLADASGPRDTQALLSATQAMDLRRRDYHMERPLLNQEHLEELGRWGSAPRTHQWRTWLQCSRARAYALLLQHLPVLVWLPRYPVRDWLLGDLLSGLSVAIMQLPQGLAYALLAGLPPVFGLYSSFYPVFIYFLFGTSRHISVGTFAVMSVMVGSVTESLAPQALNDSMINETARDAARVQVASTLSVLVGLFQVGLGLIHFGFVVTYLSEPLVRGYTTAAAVQVFVSQLKYVFGLHLSSHSGPLSLIYTVLEVCWKLPQSKVGTVVTAAVAGVVLVVVKLLNDKLQQQLPMPIPGELLTLIGATGISYGMGLKHRFEVDVVGNIPAGLVPPVAPNTQLFSKLVGSAFTIAVVGFAIAISLGKIFALRHGYRVDSNQELVALGLSNLIGGIFQCFPVSCSMSRSLVQESTGGNSQVAGAISSLFILLIIVKLGELFHDLPKAVLAAIIIVNLKGMLRQLSDMRSLWKANRADLLIWLVTFTATILLNLDLGLVVAVIFSLLLVVVRTQMPHYSVLGQVPDTDIYRDVAEYSEAKEVRGVKVFRSSATVYFANAEFYSDALKQRCGVDVDFLISQKKKLLKKQEQLKLKQLQKEEKLRKQAASPKGASVSINVNTSLEDMRSNNVEDCKMMQVSSGDKMEDATANGQEDSKAPDGSTLKALGLPQPDFHSLILDLGALSFVDTVCLKSLKNIFHDFREIEVEVYMAACHSPVVSQLEAGHFFDASITKKHLFASVHDAVTFALQHPRPVPDSPVSVTRL [SLC26A6]”, for which the “solubility in G1/S (log2)” value in the data set with HeLa Kyoto [1] is -0.00184. Moreover, the figures for the melting temperature in the data set on HeLa Kyoto [2] (cell cycle stage: G1/S) and in the data set on HeLa Kyoto [2] (cell cycle stage: mitosis) were 56.6 °C and 56 °C, respectively. Besides, in the data set on HeLa Kyoto [3], the “solubility change mitosis (log2)” value was -0.0476. The figures for the thermal stability score in the data set on HeLa Kyoto [4] (setting [5]) and with HeLa Kyoto [4] (cell cycle stage: mitosis) were -1.84 and -2.56, respectively.
Regarding “MAGPVSLRDLLMGASAWMGSESPGGSPTEGGGSAAGGPEPPWREDEICVVGIFGKTALRLNSEKFSLVNTVCDRQVFPLFRHQDPGDPGPGIRTEAGAVGEAGGAEDPGAAAGGSVRGSGAVAEGNRTEAGSQDYSLLQAYYSQESKVLYLLLTSICDNSQLLRACRALQSGEAGGGLSLPHAEAHEFWKHQEKLQCLSLLYLFSVCHILLLVHPTCSFDITYDRVFRALDGLRQKVLPLLKTAIKDCPVGKDWKLNCRPCPPRLLFLFQLNGALKVEPPRNQDPAHPDKPKKHSPKRRLQHALEDQIYRIFRKSRVLTNQSINCLFTVPANQAFVYIVPGSQEEDPVGMLLDQLRSHCTVKDPESLLVPAPLSGPRRYQVMRQHSRQQLSFHIDSSSSSSSGQLVDFTLREFLWQHVELVLSKKGFDDSVGRNPQPSHFELPTYQKWISAASKLYEVAIDGKEEDLGSPTGELTSKILSSIKVLEGFLDIDTKFSENRCQKALPMAHSAYQSNLPHNYTMTVHKNQLAQALRVYSQHARGPAFHKYAMQLHEDCYKFWSNGHQLCEERSLTDQHCVHKFHSLPKSGEKPEADRNPPVLYHNSRARSTGACNCGRKQAPRDDPFDIKAANYDFYQLLEEKCCGKLDHINFPVFEPSTPDPAPAKNESSPAPPDSDADKLKEKEPQTQGESTSLSLALSLGQSTDSLGTYPADPQAGGDNPEVHGQVEVKTEKRPNFVDRQASTVEYLPGMLHSNCPKGLLPKFSSWSLVKLGPAKSYNFHTGLDQQGFIPGTNYLMPWDIVIRTRAEDEGDLDTNSWPAPNKAIPGKRSAVVMGRGRRRDDIARAFVGFEYEDSRGRRFMCSGPDKVMKVMGSGPKESALKALNSDMPLYILSSSQGRGLKPHYAQLMRLFVVVPDAPLQIILMPQVQPGPPPCPVFYPEKQEITLPPDGLWVLRFPYAYVTERGPCFPPKENVQLMSYKVLRGVLKAVTQ [SMG8]”, in the data set on HeLa Kyoto [1], the “solubility in G1/S (log2)” value was 0.118. Further, the values for the melting temperature in the data set on HeLa Kyoto [2] (cell cycle stage: G1/S) and with HeLa Kyoto [2] (cell cycle stage: mitosis) were 49.4 °C and 48.5 °C, respectively. In the data set on HeLa Kyoto [3], the “solubility change mitosis (log2)” value was -0.0473. Also, the thermal stability score in the data set with HeLa Kyoto [4] (setting [5]) is 0.364; in the data set on HeLa Kyoto [4] (cell cycle stage: mitosis) it was 0.79.
